Experimental data taken from article PMC7897471.

Columns and labels:
[1] = target: [Alexa488]-QnrB1 (QnrB1-His, N-terminally labelled with AlexaFluor 488); assay: fluorescence polarisation; as a1 but subunits with 1 mM ADPNP, incubated for an additional 1 h at room temperature with addition of 2 mM MgCl2
[2] = target: [Alexa488]-QnrB1 (QnrB1-His, N-terminally labelled with AlexaFluor 488); assay: fluorescence polarisation; fluorescence anisotropy; 50 nM Alexa488-labelled QnrB1 mixed with gyrase subunit(s) in EMSA buffer (30 mM Tris-Cl pH 7.5, 75 mM KCl, 6% glycerol, 2 mM MgCl2, 1 mM DTT), 10 min at room temperature; one site specific binding fit
[3] = target: E. coli DNA gyrase A2B2 complex (E. coli) (UniProt P0AES4); assay: native gel or EMSA; 20 nM 147 bp pBR322 dsDNA fragment with 0.2 μM reconstituted gyrase in EMSA buffer, QnrB1 added as indicated; 30 min at 25°C; 6% polyacrylamide gel in TBM; IC50 = QnrB1 concentration that halves the bound DNA
[4] = target: E. coli DNA gyrase subunit B, full-length untagged (E. coli) (UniProt P0AES6)
[5] = target: GyrB 43 kDa domain (GyrB43), N-terminal ATPase-transducer domain of E. coli GyrB (E. coli)
[6] = target: E. coli DNA gyrase A2B2 complex (E. coli) (UniProt P0AES4)
[7] = target: GyrB 43 kDa domain (GyrB43), N-terminal ATPase-transducer domain of E. coli GyrB (E. coli); remark: listed apart in the source
[8] = target: Gyrase (Escherichia coli) (UniProt P0AES4); details: cited from earlier work

Substance | Kd [1] [nM] | Kd [2] [nM] | other results
E. coli DNA gyrase A2B2 complex (from UniProt P0AES4 1-875; P0AES6 1-804) | 1780 | 80 | –
E. coli DNA gyrase subunit A, full-length untagged (from UniProt P0AES4 1-875) (natural protein) | – | 3900 | –
E. coli DNA gyrase subunit B, full-length untagged (from UniProt P0AES6 1-804) (natural protein) | 3800 | 2530 | –
GyrB 43 kDa domain (GyrB43), N-terminal ATPase-transducer domain of E. coli GyrB (domain or fragment) | 12200 | 1770 | –
QnrB1 with a C-terminal 6xHis tag (wild type, unlabelled) (natural protein) | – | – | IC50 [3]: 10900 nM; ATPase activity of the full-length GyrB subunit with QnrB1 (not shown) [4]: < 2 fold; QnrB1-dependent activation of GyrB43 ATPase activity (4 μM GyrB43, 1 mM ATP), Km for QnrB1 of a Michaelis-Menten fit [5]: 3.61 µM; DNA-independent ATP hydrolysis rate of 50 nM gyrase (A2B2) with 5 μM QnrB1 [6]: 3 fold; ATPase reaction rate of 4 μM GyrB43 with 5 μM QnrB1 against no QnrB1 [7]: 17 fold
YacG (from UniProt C4ZRJ5) | – | – | Ki [8]: 35 nM
